The source of these data is PMC9352680, “A comprehensive thermodynamic model for RNA binding by the Saccharomyces cerevisiae Pumilio protein PUF4”.

In this data set the target is T1, PUF4 RNA-binding domain (Saccharomyces cerevisiae, UniProt P25339 537-888).
T1 sequence: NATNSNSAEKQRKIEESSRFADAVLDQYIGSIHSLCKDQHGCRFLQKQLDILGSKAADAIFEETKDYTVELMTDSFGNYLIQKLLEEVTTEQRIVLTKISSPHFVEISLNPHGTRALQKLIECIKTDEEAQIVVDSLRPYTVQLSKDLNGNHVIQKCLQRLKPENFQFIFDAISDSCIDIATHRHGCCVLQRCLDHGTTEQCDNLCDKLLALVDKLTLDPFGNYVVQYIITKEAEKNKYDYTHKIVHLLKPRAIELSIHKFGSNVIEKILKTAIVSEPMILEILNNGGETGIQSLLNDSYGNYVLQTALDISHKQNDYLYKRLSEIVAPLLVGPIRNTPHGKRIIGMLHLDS
Put plainly: Mg; RNA-MaP; 20 mM Na-HEPES pH 7.4, 30 mM KOAc, 0.75 mM MgCl2, 0.1% Tween-20, 5% glycerol, 0.1 mg/mL BSA, 2 mM DTT; 25 C; 0.0125-409.6 nM protein. Conditions: tags: N-His6-TEV cleaved; C-SNAP kept, Cy3B-labelled; label: tethered on chip by stalled RNA polymerase.

Changes are numbered by the printed parent chain. Names may count otherwise.

For UCUCUUUGUGUAUCAUCUCUU (ssRNA) [Ib_S1_P4E.1_K4.1_C4.1_H4.1_[A4G]_A4.1_F4.1_[T8C]_T4.1], the affinity, expressed as Kd, was 30.1 nM.
As for UCUCUUUGCAUAUAAUCUCUU (ssRNA) [Ib_S1_P4E.1_K4.1_C4.1_H4.1_[T3C]_A4.1_F4.1_[T8A]_T4.1], the Kd (usually the equilibrium constant for the complex coming apart) was greater than 2300 nM.
Then UCUCUUUGUCUAUAAUCUCUU (ssRNA) [Ib_S1_P4E.1_K4.1_C4.1_H4.1_[A4C]_A4.1_F4.1_[T8A]_T4.1], with 1620 nM.
The value for UCUCUUUGUGUAUAAUCUCUU (ssRNA) [Ib_S1_P4E.1_K4.1_C4.1_H4.1_[A4G]_A4.1_F4.1_[T8A]_T4.1] was 11.4 nM; that for UCUCUUUGUUUAUCAUCUCUU (ssRNA) [Ib_S1_P4E.1_K4.1_C4.1_H4.1_[A4T]_A4.1_F4.1_[T8C]_T4.1] was 917 nM.

B1: Ic_S2_P5E.1_K5.1_C5.1_H5.1_A5.1_[T5C]_[T6G]_[A7T]_F5.1_[T8C]_[T9G]_[A10T]_T5.1 (ssRNA)
RNA: UUUGAUUAAUAUGAUAUCGUUCUUUCUUGUACGUCGUUUCUUUCUCGAUAUCAUAUUAAUCUUU
On to B1, for which the Kd was 207 nM.

B2: Ic_S2_P5E.1_K5.1_C5.1_H5.1_A5.1_[T5G]_[T6C]_F5.1_[T8C]_[T9C]_[A10G]_T5.1 (ssRNA)
RNA: B1 RNA with C32G, G33C, U34A, G36C, U37G
The molecule B2 registered a Kd of 1330 nM.

B3: Ic_S2_P5E.1_K5.1_C5.1_H5.1_A5.1_[T5A]_[T6A]_[A7C]_F5.1_[T8G]_[T9C]_[A10C]_T5.1 (ssRNA)
RNA: B1 RNA with C32A, G33A, U34C, C35G, G36C, U37C
Consider B3, for which binding was characterised by a dissociation constant (Kd) of 611 nM.

B4: Ic_S2_P5E.1_K5.1_C5.1_H5.1_A5.1_[T5G]_[A7C]_F5.1_[T8G]_[A10G]_T5.1 (ssRNA)
RNA: B1 RNA with C32G, G33U, U34C, C35G, G36U, U37G
On to B4, for which the Kd worked out at 492 nM.

B5: Ic_S2_P5E.1_K5.1_C5.1_H5.1_A5.1_[T5C]_[T6C]_F5.1_[T9C]_[A10T]_T5.1 (ssRNA)
RNA: B1 RNA with G33C, U34A, C35U, G36C
Molecule B5 registered a Kd of 5.17 nM.

B6: Ic_S2_P5E.1_K5.1_C5.1_H5.1_A5.1_[T5C]_[T6A]_[A7C]_F5.1_[T8C]_[T9C]_[A10C]_T5.1 (ssRNA)
RNA: B1 RNA with G33A, U34C, G36C, U37C
With B6, the affinity, expressed as Kd, was 67.3 nM.

B7: Ic_S2_P5E.1_K5.1_C5.1_H5.1_A5.1_[T5A]_[T6C]_[A7G]_F5.1_[T9A]_[A10G]_T5.1 (ssRNA)
RNA: B1 RNA with C32A, G33C, U34G, C35U, G36A, U37G
For the molecule B7, the Kd came to 69.1 nM.

B8: Ic_S2_P5E.1_K5.1_C5.1_H5.1_A5.1_[T5A]_F5.1_[T9A]_[A10T]_T5.1 (ssRNA)
RNA: B1 RNA with C32A, G33U, U34A, C35U, G36A
On to B8, for which the affinity, expressed as Kd, was 1.32 nM.

B9: Ic_S2_P5E.1_K5.1_C5.1_H5.1_A5.1_[T5C]_[T6A]_[A7C]_F5.1_[T9C]_T5.1 (ssRNA)
RNA: B1 RNA with G33A, U34C, C35U, G36C, U37A
Consider B9, for which the affinity, expressed as Kd, was 7.78 nM.

B10: Ic_S2_P5E.1_K5.1_C5.1_H5.1_A5.1_[A7T]_F5.1_[T8C]_[T9A]_T5.1 (ssRNA)
RNA: B1 RNA with C32U, G33U, G36A, U37A
B10 returned a Kd of 389 nM.

B11: Ic_S2_P5E.1_K5.1_C5.1_H5.1_A5.1_[T5C]_F5.1_[T8A]_[T9A]_[A10T]_T5.1 (ssRNA)
RNA: B1 RNA with G33U, U34A, C35A, G36A
On to B11, for which the Kd is 25.3 nM.

B12: Ic_S2_P5E.1_K5.1_C5.1_H5.1_A5.1_[T6G]_[A7T]_F5.1_[T8C]_[T9C]_[A10T]_T5.1 (ssRNA)
RNA: B1 RNA with C32U, G36C
B12 showed a Kd of 21.6 nM.

B13: Ic_S2_P5E.1_K5.1_C5.1_H5.1_A5.1_[T5A]_[A7T]_F5.1_[T8G]_[T9C]_[A10C]_T5.1 (ssRNA)
RNA: B1 RNA with C32A, G33U, C35G, G36C, U37C
For the molecule B13, binding was characterised by a dissociation constant (Kd) of 622 nM.

B14: Ic_S2_P5E.1_K5.1_C5.1_H5.1_A5.1_[T5A]_[T6A]_[A7C]_F5.1_[T9A]_T5.1 (ssRNA)
RNA: B1 RNA with C32A, G33A, U34C, C35U, G36A, U37A
For B14, binding was put at a Kd of 1.9 nM.

B15: Ic_S2_P5E.1_K5.1_C5.1_H5.1_A5.1_[T6G]_[A7T]_F5.1_[T8A]_[T9C]_[A10T]_T5.1 (ssRNA)
RNA: B1 RNA with C32U, C35A, G36C
For B15, binding was put at a Kd of 26.3 nM.

B16: Ic_S2_P5E.1_K5.1_C5.1_H5.1_A5.1_[T5A]_[T6A]_F5.1_[A10T]_T5.1 (ssRNA)
RNA: B1 RNA with C32A, G33A, U34A, C35U, G36U
B16 gave a Kd of 53.3 nM.

B17: Ic_S2_P5E.1_K5.1_C5.1_H5.1_A5.1_[T5C]_[T6G]_[A7T]_F5.1_[T8G]_[T9G]_[A10T]_T5.1 (ssRNA)
RNA: B1 RNA with C35G
In the case of B17, binding was put at a Kd of 211 nM.

B18: Ic_S2_P5E.1_K5.1_C5.1_H5.1_A5.1_[T5A]_[T6A]_[A7T]_F5.1_[T8C]_[A10T]_T5.1 (ssRNA)
RNA: B1 RNA with C32A, G33A, G36U
For the molecule B18, binding was put at a Kd of 76.2 nM.

B19: Ic_S2_P5E.1_K5.1_C5.1_H5.1_A5.1_[T6A]_[A7C]_F5.1_[T8C]_[T9A]_[A10C]_T5.1 (ssRNA)
RNA: B1 RNA with C32U, G33A, U34C, G36A, U37C
On to B19, for which the Kd is 31.2 nM.

B20: Ic_S2_P5E.1_K5.1_C5.1_H5.1_A5.1_[T5C]_F5.1_[T8C]_[T9G]_[A10C]_T5.1 (ssRNA)
RNA: B1 RNA with G33U, U34A, U37C
B20 showed a Kd of 641 nM.

B21: Ic_S2_P5E.1_K5.1_C5.1_H5.1_A5.1_[T5G]_[T6C]_F5.1_[T8A]_[T9A]_[A10C]_T5.1 (ssRNA)
RNA: B1 RNA with C32G, G33C, U34A, C35A, G36A, U37C
Molecule B21 returned a Kd of 653 nM.
